Earlier results in paper PMC4962041.
pKd: −log10 of the molar value.

Biological target: ubiquitin (UniProt P0CG48)

yDdi1 UBL, sequence (P40087 1-80): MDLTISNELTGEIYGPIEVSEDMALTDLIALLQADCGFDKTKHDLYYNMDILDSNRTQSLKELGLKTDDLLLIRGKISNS

Substance: yDdi1 UBL (from UniProt P40087)
- pKd: 4.35
